Assay [1] deals with T1, human CD16A (F158) on NK92mi cells (human, UniProt P08637 17-254).
T1 construct: NK92mi cells co-transduced with CD16A (F158) and FcRgamma cDNAs; also called NK92mi/CD16A F158
In words: flow cytometry, biotinylated antibody on NK92mi/CD16A F158 cells, w/o huIgG. Background: Flow cytometry measures light scatter and fluorescence of single cells or particles in a stream.

Assay [2] addresses T2, human CD16A (V158) on NK92mi cells (human, UniProt P08637 17-254).
T2 construct: NK92mi cells co-transduced with CD16A (V158) and FcRgamma cDNAs; also called NK92mi/CD16A V158; NK92mi/CD16A
Kind of assay: flow cytometry, biotinylated antibody on NK92mi/CD16A V158 cells, with 10 mg/ml huIgG1 as competitor.

The target in assay [3] is T2, human CD16A (V158) on NK92mi cells. In words: flow cytometry, biotinylated antibody on NK92mi/CD16A V158 cells, w/o huIgG.
Assay [4] concerns the target T3, human CD16A-His6 (F158) (human, UniProt P08637 17-208).
T3 construct: Bought ECD fragment; also called human CD16A (F158); not shown: six-histidine tag (His6)
Kind of assay: SPR; BG1222P captured by biotin anti-human Fc VHH on neutravidin, analyte in solution.

Assay [5] addresses T4, human CD16A-His6 (V158) (human, UniProt P08637 17-208).
T4 construct: Bought (Sino Biologics) ECD fragment; also called CD16A 158V; human CD16A (V158); not shown: six-histidine tag (His6)
Described as above.

The target in assay [6] is T1, human CD16A (F158) on NK92mi cells. Kind of assay: flow cytometry, biotinylated antibody on NK92mi/CD16A F158 cells, with 10 mg/ml huIgG1 as competitor.
Assay [7] has as its target T3, human CD16A-His6 (F158). In words: SPR; BG1222P captured by biotin anti-human Fc VHH on neutravidin; column head prints 'KD (nM)', koff/kon shows M. (SPR reads the build-up and loss of mass on a sensor chip optically.)
Assay [8] has as its target T4, human CD16A-His6 (V158). The assay is described as above.

The EC50 is the concentration that produces a half-maximal response. High values mean a less potent agent, low ones a more potent agent. By koff is commonly meant a measure of how fast the partners let go of each other. The term kon denotes a measure of how fast the partners come together. A low value points to slower complex formation. For orientation: Kd means the free concentration of one partner at which half of the binding sites on the other are occupied at equilibrium, for simple one-to-one binding.

T3 sequence (P08637 17-208): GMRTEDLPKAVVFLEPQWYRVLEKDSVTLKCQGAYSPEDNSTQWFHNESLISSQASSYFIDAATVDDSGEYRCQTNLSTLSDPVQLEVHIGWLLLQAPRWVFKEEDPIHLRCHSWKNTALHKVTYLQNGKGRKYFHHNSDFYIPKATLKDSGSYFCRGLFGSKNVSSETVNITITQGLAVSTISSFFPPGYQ
T4 sequence (P08637 17-208 F176V): as the sequence (P08637 17-208) above, with F160V counted along it
T1 sequence (P08637 17-254 limits assumed): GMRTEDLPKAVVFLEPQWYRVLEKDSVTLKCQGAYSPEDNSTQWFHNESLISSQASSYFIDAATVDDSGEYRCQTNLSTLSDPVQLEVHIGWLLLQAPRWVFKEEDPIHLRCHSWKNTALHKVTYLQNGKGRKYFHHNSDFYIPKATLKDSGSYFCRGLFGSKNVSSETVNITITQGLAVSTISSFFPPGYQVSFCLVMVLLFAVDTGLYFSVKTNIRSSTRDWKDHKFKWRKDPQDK
T2 sequence (P08637 17-254 F176V limits assumed): as the sequence (P08637 17-254 limits assumed) above, with F160V counted along it

B1: MUC1×CD16A multi-specific antibody BG1222P (bispecific antibody, human IgG1, kappa)
chain: EVQLVESGGGLVQPGGSLRLSCAASGRTFGSYAVGWFRQAPGKGREFVAAIRRSDATTDYVDSVKGRFTISRDNAKNTVYLQMNSLKPEDTAVYYCAASDSDYEPLGDYWGQGTLVTVSSGGGGSGGGGSEVQLVESGGGLVQPGGSLRLSCAASGRTFGSYAVGWFRQAPGKGREFVAAIRRSDATTDYVDSVKGRFTISRDNAKNTVYLQMNSLKPEDTAVYYCAASDSDYEPLGDYWGQGTLVTVSSEPKSSDKTHTCPPCPAPELLGGPSVFLFPPKPKDTLYITREPEVTCVVVDVSHEDPEVKFNWYVDGVEVHNAKTKPREEQYNSTYRVVSVLTVLHQDWLNGKEYKCKVSNKALPAPIEKTISKAKGQPREPQVYTLPPSREEMTKNQVSLWCLVKGFYPSDIAVEWESNGQPENNYKTTPPVLDSDGSFFLYSKLTVDKSRWQQGNVFSCSVMHEALHNHYTQKSLSLSPGK
heavy: EVQLLESGGGLVQPGGSLRLSCAASGFTFNDYIMSWVRQAPGKGLEWVATVSSGGDNTYYPDSVKGRFTISRDNSKNTLYLQMNSLRAEDTAVYYCTRYGGLGAMDYWGQGTLVTVSSASTKGPSVFPLAPSSKSTSGGTAALGCLVKDYFPEPVTVSWNSGALTSGVHTFPAVLQSSGLYSLSSVVTVPSSSLGTQTYICNVNHKPSNTKVDKKVEPKSCDKTHTCPPCPAPELLGGPSVFLFPPKPKDTLYITREPEVTCVVVDVSHEDPEVKFNWYVDGVEVHNAKTKPREEQYNSTYRVVSVLTVLHQDWLNGKEYKCKVSNKALPAPIEKTISKAKGQPREPQVYTLPPSREEMTKNQVSLSCAVKGFYPSDIAVEWESNGQPENNYKTTPPVLDSDGSFFLVSKLTVDKSRWQQGNVFSCSVMHEALHNHYTQKSLSLSPGK
light: DIQMTQSPSSLSASVGDRVTITCRASGNIHNYLTWYQQKPGKAPKLLIYNAKTLASGVPSRFSGSGSGTDFTLTISSLQPEDFATYYCQHFWSVPYTFGQGTKLEIKRTVAAPSVFIFPPSDEQLKSGTASVVCLLNNFYPREAKVQWKVDNALQSGNSQESVTEQDSKDSTYSLSSTLTLSKADYEKHKVYACEVTHQGLSSPVTKSFNRGEC
notes: '2+1' IgG-like format: chain 1 = tandem BG526P VHHs-hinge-Fc (knob), chain 2 = huBG219P-E39 heavy chain (hole), chain 3 = huBG219P-E39 kappa light chain; YTE mutations in both Fc; also called BG11222P
With B1, the concentration giving a half-maximal response (EC50) in assay [1] is 0.97 nM; in assay [2] it was 33.9 nM; in assay [3], 0.35 nM; in assay [6] it was 7.99 nM. Further, the koff with human CD16A-His6 (F158) [4] worked out at 8.52e-05 s⁻¹; with human CD16A-His6 (V158) [5], 4.22e-05 s⁻¹. For the same molecule, the kon with human CD16A-His6 (F158) [4] worked out at 579000 M⁻¹ s⁻¹; in the assay with human CD16A-His6 (V158) [5] it was 886000 M⁻¹ s⁻¹. Moreover, the results for the dissociation constant Kd in the assay with human CD16A-His6 (F158) [7] and with human CD16A-His6 (V158) [8] were 0.147 nM and 0.0477 nM, respectively.

Values taken from patent publication US20250075002A1 (BEIGENE SWITZERLAND, published 2025).
